{"source": "patent US20150087577A1", "about": "(POLYPHOR, published 2015)", "binders": {"B1": {"name": "Example 149 (peptide)", "peptide": "cyclo(YR[Cit]CRG[dP]RRYCYQK[dQ]P)", "modifications": "disulfide 4-11", "SMILES": "N=C(N)NCCC[C@@H]1NC(=O)[C@@H]2CSSC[C@H](NC(=O)[C@H](Cc3ccc(O)cc3)NC(=O)[C@H](CCCNC(=N)N)NC(=O)[C@H](CCCNC(=N)N)NC(=O)[C@H]3CCCN3C(=O)CNC1=O)C(=O)N[C@@H](Cc1ccc(O)cc1)C(=O)N[C@@H](CCC(N)=O)C(=O)N[C@@H](CCCCN)C(=O)N[C@H](CCC(N)=O)C(=O)N1CCC[C@H]1C(=O)N[C@@H](Cc1ccc(O)cc1)C(=O)N[C@@H](CCCNC(=N)N)C(=O)N[C@@H](CCCNC(N)=O)C(=O)N2"}, "B2": {"name": "Example 158 (peptide)", "peptide": "RRWCYQKGYXPYGYRXCRGP", "modifications": "D-Pro at P10; Cit at P16; disulfide Cys P4-Cys P17; backbone-cyclic via template Gly-LPro"}, "B3": {"name": "Example 153 (peptide)", "peptide": "cyclo(YR[Cit]ERG[dP]RRW[Dab]Y[Cit]K[dP]P)", "modifications": "lactam 4-11", "SMILES": "N=C(N)NCCC[C@@H]1NC(=O)[C@@H]2CCC(=O)NCC[C@H](NC(=O)[C@H](Cc3c[nH]c4ccccc34)NC(=O)[C@H](CCCNC(=N)N)NC(=O)[C@H](CCCNC(=N)N)NC(=O)[C@H]3CCCN3C(=O)CNC1=O)C(=O)N[C@@H](Cc1ccc(O)cc1)C(=O)N[C@@H](CCCNC(N)=O)C(=O)N[C@@H](CCCCN)C(=O)N1CCC[C@@H]1C(=O)N1CCC[C@H]1C(=O)N[C@@H](Cc1ccc(O)cc1)C(=O)N[C@@H](CCCNC(=N)N)C(=O)N[C@@H](CCCNC(N)=O)C(=O)N2"}, "B4": {"name": "Example 28 (peptide)", "peptide": "cyclo(YR[Cit]FRVPRR[2Nal]FY[Cit]K[dP]P)", "SMILES": "CC(C)[C@@H]1NC(=O)[C@H](CCCNC(=N)N)NC(=O)[C@H](Cc2ccccc2)NC(=O)[C@H](CCCNC(N)=O)NC(=O)[C@H](CCCNC(=N)N)NC(=O)[C@H](Cc2ccc(O)cc2)NC(=O)[C@@H]2CCCN2C(=O)[C@H]2CCCN2C(=O)[C@H](CCCCN)NC(=O)[C@H](CCCNC(N)=O)NC(=O)[C@H](Cc2ccc(O)cc2)NC(=O)[C@H](Cc2ccccc2)NC(=O)[C@H](Cc2ccc3ccccc3c2)NC(=O)[C@H](CCCNC(=N)N)NC(=O)[C@H](CCCNC(=N)N)NC(=O)[C@@H]2CCCN2C1=O"}, "B5": {"name": "Example 31 (peptide)", "peptide": "cyclo(YR[Cit]VR[Cit]PRR[2Nal]FY[Cit]K[dP]P)", "SMILES": "CC(C)[C@@H]1NC(=O)[C@H](CCCNC(N)=O)NC(=O)[C@H](CCCNC(=N)N)NC(=O)[C@H](Cc2ccc(O)cc2)NC(=O)[C@@H]2CCCN2C(=O)[C@H]2CCCN2C(=O)[C@H](CCCCN)NC(=O)[C@H](CCCNC(N)=O)NC(=O)[C@H](Cc2ccc(O)cc2)NC(=O)[C@H](Cc2ccccc2)NC(=O)[C@H](Cc2ccc3ccccc3c2)NC(=O)[C@H](CCCNC(=N)N)NC(=O)[C@H](CCCNC(=N)N)NC(=O)[C@@H]2CCCN2C(=O)[C@H](CCCNC(N)=O)NC(=O)[C@H](CCCNC(=N)N)NC1=O"}, "B6": {"name": "Example 32 (peptide)", "peptide": "cyclo(YR[Cit]VRV[dP]RR[2Nal]FY[Cit]K[dP]P)", "SMILES": "CC(C)[C@@H]1NC(=O)[C@H](CCCNC(N)=O)NC(=O)[C@H](CCCNC(=N)N)NC(=O)[C@H](Cc2ccc(O)cc2)NC(=O)[C@@H]2CCCN2C(=O)[C@H]2CCCN2C(=O)[C@H](CCCCN)NC(=O)[C@H](CCCNC(N)=O)NC(=O)[C@H](Cc2ccc(O)cc2)NC(=O)[C@H](Cc2ccccc2)NC(=O)[C@H](Cc2ccc3ccccc3c2)NC(=O)[C@H](CCCNC(=N)N)NC(=O)[C@H](CCCNC(=N)N)NC(=O)[C@H]2CCCN2C(=O)[C@H](C(C)C)NC(=O)[C@H](CCCNC(=N)N)NC1=O"}, "B7": {"name": "Example 151 (peptide)", "peptide": "cyclo(YR[Cit]SRG[dP]RRWNY[Cit]K[dP]P)", "SMILES": "N=C(N)NCCC[C@@H]1NC(=O)[C@H](CO)NC(=O)[C@H](CCCNC(N)=O)NC(=O)[C@H](CCCNC(=N)N)NC(=O)[C@H](Cc2ccc(O)cc2)NC(=O)[C@@H]2CCCN2C(=O)[C@H]2CCCN2C(=O)[C@H](CCCCN)NC(=O)[C@H](CCCNC(N)=O)NC(=O)[C@H](Cc2ccc(O)cc2)NC(=O)[C@H](CC(N)=O)NC(=O)[C@H](Cc2c[nH]c3ccccc23)NC(=O)[C@H](CCCNC(=N)N)NC(=O)[C@H](CCCNC(=N)N)NC(=O)[C@H]2CCCN2C(=O)CNC1=O"}, "B8": {"name": "Example 152 (peptide)", "peptide": "cyclo(YR[Cit][Dab]RG[dP]RRWEY[Cit]K[dP]P)", "modifications": "lactam 4-11", "SMILES": "N=C(N)NCCC[C@@H]1NC(=O)[C@@H]2CCNC(=O)CC[C@H](NC(=O)[C@H](Cc3c[nH]c4ccccc34)NC(=O)[C@H](CCCNC(=N)N)NC(=O)[C@H](CCCNC(=N)N)NC(=O)[C@H]3CCCN3C(=O)CNC1=O)C(=O)N[C@@H](Cc1ccc(O)cc1)C(=O)N[C@@H](CCCNC(N)=O)C(=O)N[C@@H](CCCCN)C(=O)N1CCC[C@@H]1C(=O)N1CCC[C@H]1C(=O)N[C@@H](Cc1ccc(O)cc1)C(=O)N[C@@H](CCCNC(=N)N)C(=O)N[C@@H](CCCNC(N)=O)C(=O)N2"}, "B9": {"name": "Example 52 (peptide)", "peptide": "cyclo(YR[Cit]CRGGRR[2Nal]CY[Cit]K[dP]P)", "modifications": "disulfide 4-11", "SMILES": "N=C(N)NCCC[C@@H]1NC(=O)CNC(=O)CNC(=O)[C@H](CCCNC(=N)N)NC(=O)[C@@H]2CSSC[C@H](NC(=O)[C@H](Cc3ccc4ccccc4c3)NC(=O)[C@H](CCCNC(=N)N)NC1=O)C(=O)N[C@@H](Cc1ccc(O)cc1)C(=O)N[C@@H](CCCNC(N)=O)C(=O)N[C@@H](CCCCN)C(=O)N1CCC[C@@H]1C(=O)N1CCC[C@H]1C(=O)N[C@@H](Cc1ccc(O)cc1)C(=O)N[C@@H](CCCNC(=N)N)C(=O)N[C@@H](CCCNC(N)=O)C(=O)N2"}}, "note": "Bridges are numbered along the chain shown (N, C = ends). Primed or numbered codes have the meaning given here. [ ]: non-standard residue; d: D form. 2Nal = N[C@@H](Cc1ccc2ccccc2c1)C(=O)O; Cit = NC(=O)NCCC[C@H](N)C(=O)O; Dab = NCC[C@H](N)C(=O)O; Pip′ = not defined here"}
{"target": "human CXCR4 (human, UniProt P61073 1-352)", "sequence (P61073 whole entry)": "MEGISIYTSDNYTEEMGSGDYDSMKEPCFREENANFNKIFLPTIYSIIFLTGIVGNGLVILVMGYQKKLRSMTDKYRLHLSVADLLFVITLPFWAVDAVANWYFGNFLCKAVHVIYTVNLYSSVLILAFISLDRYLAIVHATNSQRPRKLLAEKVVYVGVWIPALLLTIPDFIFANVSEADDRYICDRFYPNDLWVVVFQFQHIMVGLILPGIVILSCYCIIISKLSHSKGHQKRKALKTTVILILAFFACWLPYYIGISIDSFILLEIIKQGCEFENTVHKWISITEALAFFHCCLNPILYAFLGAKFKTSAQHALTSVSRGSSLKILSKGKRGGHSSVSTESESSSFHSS", "experiment": "cell-based or functional assay", "units": {"IC50 (nM) Ca2+ assay (method 2)": "nM", "IC50 (nM) Ca2+ assay (method 1)": "nM", "IC50 (µM) Cell migration assay": "µM"}}
{"binder": "B1", "IC50 (nM) Ca2+ assay (method 2)": 1}
{"binder": "cyclo(RRWCYQKCYKGYCYR[Cit]CRG[dP]) (disulfide 8-13, 4-17)", "note": "[Example 155]", "IC50 (nM) Ca2+ assay (method 2)": 0.46}
{"binder": "RRWCYQKGYKGYGYRXCRGX (Cit at P16; disulfide Cys P4-Cys P17; backbone-cyclic via template Gly-DPro)", "note": "[Example 156]", "IC50 (nM) Ca2+ assay (method 2)": 49}
{"binder": "RRWCYQKGYXGYGYRXCRGX (Cit at P16; disulfide Cys P4-Cys P17; backbone-cyclic via template Gly-DPro)", "note": "[Example 157]", "IC50 (nM) Ca2+ assay (method 2)": 11.3}
{"binder": "B2", "IC50 (nM) Ca2+ assay (method 2)": 250}
{"binder": "cyclo(RRWCYRKCYKGYCYRKCRG[dP]) (disulfide 8-13, 4-17)", "note": "[Example 160]", "IC50 (nM) Ca2+ assay (method 2)": 0.38}
{"binder": "B3", "IC50 (nM) Ca2+ assay (method 2)": 21.9}
{"binder": "B4", "IC50 (nM) Ca2+ assay (method 1)": 2680}
{"binder": "B5", "IC50 (nM) Ca2+ assay (method 1)": 1470}
{"binder": "B6", "IC50 (nM) Ca2+ assay (method 1)": 760}
{"binder": "B7", "IC50 (nM) Ca2+ assay (method 2)": 4.2}
{"binder": "B8", "IC50 (nM) Ca2+ assay (method 2)": 4.2}
{"binder": "cyclo([Pip′]RYCYQK[dP]PYR[Cit]CRG[dP]) (disulfide 4-13)", "note": "[Example 150]", "IC50 (nM) Ca2+ assay (method 2)": 1.4}
{"binder": "RRYCYQKGYXPYGYRTCRGP (D-Pro at P10; disulfide Cys P4-Cys P17; backbone-cyclic via template Gly-LPro)", "note": "[Example 159]", "IC50 (nM) Ca2+ assay (method 2)": 118}
{"binder": "B9", "IC50 (nM) Ca2+ assay (method 1)": 3.1, "IC50 (µM) Cell migration assay": 2.75}
{"binder": "cyclo(RR[2Nal]CY[Cit]KCYKGYCYR[Cit]CRG[dP]) (disulfide 8-13, 4-17)", "note": "[Example 154]", "IC50 (nM) Ca2+ assay (method 2)": 9.3}
